Reference: the supplement of paper PMC9233669
Variants at the floor of the assay were thinned out.

How the values were obtained:
biotinyl-Leu-oxazolone = test: self-aminoacylation, catalytic enhancement (BLO) (fold over background); higher = more active; k-Seq, kA / k0A0; sequences stand for … in GGGAAUGGAUCCACAUCUACGAAUUC…UUCACUGCAGACUUGACGAAGCUG
Summary of the method: (§1)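 Working in 50 μL HEPES/NaCl/KCl/MgCl2/CaCl2 buffer with 5% acetonitrile at pH 6.9–7.0, mutagenized RNA pools (0.43 μM; 21-nt variable region) were reacted with 2–1250 μM of each biotinyl-aminoacyl-oxazolone for 90 minutes at room temperature. Streptavidin capture followed, with quantification by triplicate qPCR and Illumina sequencing. Catalytic enhancement is reported as median kA over the uncatalyzed rate, the low-activity peak of a bimodal Gaussian fit to the data.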

biotinyl-Trp-oxazolone = test: self-aminoacylation, catalytic enhancement (BWO) (fold over background); higher = more active; k-Seq, kA / k0A0; sequences stand for … in GGGAAUGGAUCCACAUCUACGAAUUC…UUCACUGCAGACUUGACGAAGCUG
Summary of the method: as §1

biotinyl-Val-oxazolone = test: self-aminoacylation, catalytic enhancement (BVO) (fold over background); higher = more active; k-Seq, kA / k0A0; sequences stand for … in GGGAAUGGAUCCACAUCUACGAAUUC…UUCACUGCAGACUUGACGAAGCUG
Summary of the method: as §1

biotinyl-Met-oxazolone = test: self-aminoacylation, catalytic enhancement (BMO) (fold over background); higher = more active; k-Seq, kA / k0A0; sequences stand for … in GGGAAUGGAUCCACAUCUACGAAUUC…UUCACUGCAGACUUGACGAAGCUG
Summary of the method: as §1

biotinyl-Ile-oxazolone = test: self-aminoacylation, catalytic enhancement (BIO) (fold over background); higher = more active; k-Seq, kA / k0A0; sequences stand for … in GGGAAUGGAUCCACAUCUACGAAUUC…UUCACUGCAGACUUGACGAAGCUG
Summary of the method: as §1

biotinyl-Phe-oxazolone = test: self-aminoacylation, catalytic enhancement (BFO) (fold over background); higher = more active; k-Seq, kA / k0A0; sequences stand for … in GGGAAUGGAUCCACAUCUACGAAUUC…UUCACUGCAGACUUGACGAAGCUG
Summary of the method: as §1

Sequence | self-aminoacylation (biotinyl-Leu-oxazolone) | self-aminoacylation (biotinyl-Trp-oxazolone) | self-aminoacylation (biotinyl-Val-oxazolone) | self-aminoacylation (biotinyl-Met-oxazolone) | self-aminoacylation (biotinyl-Ile-oxazolone) | self-aminoacylation (biotinyl-Phe-oxazolone)
CUACUUCAAACAAUCGUUAUG [Fam1A.1 aminoacylation ribozyme variant] | 0.523 | 0.59 | 0.627 | 0.48 | 0.683 | 0.899
CUACUUCAAACAAUCGUUCCG [Fam1A.1 aminoacylation ribozyme variant] | 0.786 | 0.587 | 0.66 | 0.516 | 0.724 | 0.562
CUACUUCAAACAAUCGUUUUG [Fam1A.1 aminoacylation ribozyme variant] | 0.568 | 0.576 | 0.669 | 0.603 | 0.758 | 0.98
CUACUUCAAACAAUCUAUCUG [Fam1A.1 aminoacylation ribozyme variant] | 0.485 | 0.474 | 0.579 | 0.461 | 0.507 | 0.981
CUACUUCAAACAAUCUGUCUU [Fam1A.1 aminoacylation ribozyme variant] | 0.576 | 0.495 | 0.74 | 0.559 | 0.872 | 0.839
CUACUUCAAACAAUCUGUUUG [Fam1A.1 aminoacylation ribozyme variant] | 0.76 | 0.635 | 0.838 | 0.713 | 0.788 | 0.912
CUACUUCAAACAAUGGGUCAG [Fam1A.1 aminoacylation ribozyme variant] | 0.651 | 0.5 | 0.589 | 0.648 | 0.6 | 0.92
CUACUUCAAACAAUGGGUCUA [Fam1A.1 aminoacylation ribozyme variant] | 0.638 | 0.487 | 0.756 | 0.611 | 0.847 | 0.65
CUACUUCAAACAAUGGGUCUC [Fam1A.1 aminoacylation ribozyme variant] | 0.569 | 0.428 | 0.658 | 0.609 | 0.688 | 0.715
CUACUUCAAACAAUUGGACUG [Fam1A.1 aminoacylation ribozyme variant] | 0.664 | 0.443 | 0.641 | 0.633 | 0.709 | 0.671
CUACUUCAAACAAUUGGUUUG [Fam1A.1 aminoacylation ribozyme variant] | 0.721 | 0.708 | 0.7 | 0.676 | 0.757 | 0.803
CUACUUCAAACAAUUGUUCUG [Fam1A.1 aminoacylation ribozyme variant] | 0.611 | 0.367 | 0.636 | 0.633 | 0.619 | 0.673
CUACUUCAAACACGCGGUCUG [Fam1A.1 aminoacylation ribozyme variant] | 1.42 | 1.74 | 1.36 | 1.64 | 1.61 | 0.711
CUACUUCAAACAGUCGCUCUG [Fam1A.1 aminoacylation ribozyme variant] | 1.75 | 1.09 | 1.25 | 1.45 | 1.12 | 1.68
CUACUUCAAACAGUCGGACUG [Fam1A.1 aminoacylation ribozyme variant] | 0.564 | 0.682 | 0.826 | 0.697 | 0.853 | 0.77
CUACUUCAAACAGUCGUUCUG [Fam1A.1 aminoacylation ribozyme variant] | 0.475 | 0.472 | 0.611 | 0.589 | 0.579 | 0.701
CUACUUCAAACAGUCUGUCUG [Fam1A.1 aminoacylation ribozyme variant] | 0.568 | 0.337 | 0.597 | 0.515 | 0.608 | 0.663
CUACUUCAAACAGUUGGUCUG [Fam1A.1 aminoacylation ribozyme variant] | 0.79 | 0.595 | 0.736 | 0.538 | 0.893 | 0.982
CUACUUCAAACAUACGGUCUG [Fam1A.1 aminoacylation ribozyme variant] | 0.662 | 0.556 | 0.763 | 0.565 | 0.776 | 0.561
CUACUUCAAACAUUAGGUCUG [Fam1A.1 aminoacylation ribozyme variant] | 0.6 | 0.535 | 0.747 | 0.617 | 0.813 | 0.696
CUACUUCAAACAUUCGGUCAG [Fam1A.1 aminoacylation ribozyme variant] | 0.861 | 0.688 | 0.992 | 0.886 | 0.901 | 0.674
CUACUUCAAACAUUCGGUCUC [Fam1A.1 aminoacylation ribozyme variant] | 0.806 | 0.715 | 0.975 | 0.849 | 0.986 | 0.796
CUACUUCAAACCAACGGUCUG [Fam1A.1 aminoacylation ribozyme variant] | 0.587 | 0.556 | 1.02 | 0.68 | 0.786 | 1.44
